The text below walks through data of PMC6324732 (Cancer immunology research, 2018).

The target of assay [1] is HLA-A*02:01 heavy chain / β2-microglobulin (human). As to the kind of experiment: differential scanning fluorimetry. (In general: DSF heats the sample and reads unfolding from a dye or from intrinsic fluorescence.)
Assay [2] has as its system HLA-A2-restricted T-cell response. To be noted: HLA-A2-restricted epitopes; cited from earlier work.
Assay [3] relates to HLA-A2. To be noted: pep/HLA-A2 complexes; cited from earlier work.
The subject of assay [4] is HLA-A2. To be noted: each complex refolded with HLA-A2 individually, DSF; cited from earlier work.
For assay [5], the target named is HLA-A*02:01 heavy chain / β2-microglobulin (human). Nature of the assay: differential scanning fluorimetry. The source holds these as a separate data set.

Where two headings read alike, the source gives them in different places.

For the molecule TAX peptide, in assay [1], the Tm of the peptide/HLA-A2 complex was 61.9 °C.

With FLTSVINRV, the “immunogenicity (reported)” value in assay [2] is “immunogenic”. Also, the “half-life of the complex (reported)” value in the assay with HLA-A2 [3] was 22.3 h.

For YMDGTMSQV [Tyrosinase], in the assay with HLA-A2 [4], the “Tm value determined by another lab” value is 67.3 °C.

Regarding SVLENFTIFL, in assay [5], the Tm of the peptide/HLA-A2 complex stood at 55.8 °C.

In the case of HIAKSLFEV [FLNA neoantigen peptide …], in assay [5], the Tm of the peptide/HLA-A2 complex came to 56.4 °C.

Regarding GLFGDIYLAI [CSNK1A1 neoantigen peptide …], the Tm of the peptide/HLA-A2 complex in assay [5] is 52.6 °C.

Take VLHDDLLEA [KIAA0223 neoantigen peptide …]: the Tm of the peptide/HLA-A2 complex in assay [5] stood at 59.7 °C.

On to FMPDFDLHL [AHNAK neoantigen peptide …], for which the Tm of the peptide/HLA-A2 complex in assay [5] came to 60.1 °C.

For SLADEAEVYL [GAS7 neoantigen peptide …], the Tm of the peptide/HLA-A2 complex in assay [5] is 59.2 °C.

As to SLFEGIDIYT [HSP70 neoantigen peptide …], the Tm of the peptide/HLA-A2 complex in assay [5] came out at 59.8 °C.

With TLWCSPIKV [SRPX neoantigen peptide …], in assay [5], the Tm of the peptide/HLA-A2 complex came to 63.7 °C.

Turning to FLSDHLYLV [CDC37L1 neoantigen peptide …], the Tm of the peptide/HLA-A2 complex in assay [5] was found to be 61.8 °C.

With ILTGLNYEV [NSDHL neoantigen peptide …], in assay [5], the Tm of the peptide/HLA-A2 complex was determined as 61.4 °C.

For GIVEGLITTV [GAPDH neoantigen peptide …], in assay [5], the Tm of the peptide/HLA-A2 complex turned out to be 58.5 °C.

On to ACDPHSGHFV [CDK4 neoantigen peptide …], for which the Tm of the peptide/HLA-A2 complex in assay [5] was found to be 59.9 °C.

For ALIHHNTYL [ERBB2 neoantigen peptide …], the Tm of the peptide/HLA-A2 complex in assay [5] came to 59.4 °C.

With LLLDDLLVSI [PRDX5 neoantigen peptide …], in assay [5], the Tm of the peptide/HLA-A2 complex was 55.3 °C.

With VLENFTIFLV, the Tm of the peptide/HLA-A2 complex in assay [5] was determined as 48.2 °C.

For the molecule LLHTELERFL [DCAKD neoantigen peptide …], the Tm of the peptide/HLA-A2 complex in assay [5] was 42.9 °C.

For the molecule VLAKKLKFV [ACPP neoantigen peptide …], the Tm of the peptide/HLA-A2 complex in assay [5] was determined as 56.8 °C.

Turning to VLLGVKLFGV [COL18A1 neoantigen peptide …], the Tm of the peptide/HLA-A2 complex in assay [5] is 60.9 °C.

With FLLDEAIGL [SPOP neoantigen peptide …], in assay [5], the Tm of the peptide/HLA-A2 complex turned out to be 60.7 °C.

Turning to ILDKVLVHL [CLPP neoantigen peptide …], the Tm of the peptide/HLA-A2 complex in assay [5] is 57.1 °C.

As to VVMSWAPPV [FNDC3B neoantigen peptide …], in assay [5], the Tm of the peptide/HLA-A2 complex stood at 61.6 °C.

Regarding ILNAMIAKI [HAUS3 neoantigen peptide …], the Tm of the peptide/HLA-A2 complex in assay [5] amounted to 56.9 °C.

As to FIASNGVKLV [ACTININ neoantigen peptide …], in assay [5], the Tm of the peptide/HLA-A2 complex was 56.9 °C.

Take TLLSQVNKV [CIT neoantigen peptide …]: in assay [5], the Tm of the peptide/HLA-A2 complex worked out at 53.2 °C.

Consider ALYGFVPVL [GANAB neoantigen peptide …], for which the Tm of the peptide/HLA-A2 complex in assay [5] worked out at 61.7 °C.

Regarding FLDEFMEGV [ME-1 neoantigen peptide …], in assay [5], the Tm of the peptide/HLA-A2 complex amounted to 63.2 °C.
